{"source": "the supplement of paper PMC9112550", "about": "“Optimization of the antimicrobial peptide Bac7 by deep mutational scanning” (BMC Biology, 2022);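 further: peptides expressed intracellularly from a pBAD plasmid library in pooled LB shake-flask culture, induced with 0.3% L-arabinose, DNA abundance read by NGS, three biological replicates, DESeq2 with apeglm shrinkage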", "data": [{"test_system": "Escherichia coli TOP10", "assay": "shrunken log2 fold change of peptide-encoding DNA abundance (4.5 h post-induction vs induction); higher = less antimicrobial activity (less host growth inhibition)", "settings": "time post-induction: 4.5 h; library: site-saturation at positions 5, 18, 19, 20", "values": [{"sequence": "RRIRHRPPRLPRPRPRPNLYPRP", "shrunken log2 fold change": -0.012}, {"sequence": "RRIRVRPPRLPRPRPRPPMKPRP", "shrunken log2 fold change": -0.117}, {"sequence": "RRIRSRPPRLPRPRPRPYLAPRP", "shrunken log2 fold change": -0.251}, {"sequence": "RRIRMRPPRLPRPRPRPQNFPRP", "shrunken log2 fold change": 0.0982}, {"sequence": "RRIRNRPPRLPRPRPRPSIVPRP", "shrunken log2 fold change": -0.335}, {"sequence": "RRIRLRPPRLPRPRPRPAIDPRP", "shrunken log2 fold change": -0.283}, {"sequence": "RRIRWRPPRLPRPRPRPEQNPRP", "shrunken log2 fold change": 0.117}, {"sequence": "RRIRMRPPRLPRPRPRPHTRPRP", "shrunken log2 fold change": 0.387}, {"sequence": "RRIRNRPPRLPRPRPRPHKFPRP", "shrunken log2 fold change": -0.231}, {"sequence": "RRIRHRPPRLPRPRPRPNREPRP", "shrunken log2 fold change": -0.107}, {"sequence": "RRIRRRPPRLPRPRPRPDAGPRP", "shrunken log2 fold change": 0.307}, {"sequence": "RRIRNRPPRLPRPRPRPVNEPRP", "shrunken log2 fold change": -0.0227}, {"sequence": "RRIRSRPPRLPRPRPRPFYTPRP", "shrunken log2 fold change": -0.903}, {"sequence": "RRIRMRPPRLPRPRPRPPDIPRP", "shrunken log2 fold change": 0.121}, {"sequence": "RRIRGRPPRLPRPRPRPFWLPRP", "shrunken log2 fold change": 0.299}, {"sequence": "RRIRGRPPRLPRPRPRPVIHPRP", "shrunken log2 fold change": 0.0507}, {"sequence": "RRIRPRPPRLPRPRPRPWGLPRP", "shrunken log2 fold change": 0.253}, {"sequence": "RRIRLRPPRLPRPRPRPWCSPRP", "shrunken log2 fold change": -1.02}, {"sequence": "RRIRKRPPRLPRPRPRPVNYPRP", "shrunken log2 fold change": -0.0716}, {"sequence": "RRIRYRPPRLPRPRPRPSLSPRP", "shrunken log2 fold change": -0.623}, {"sequence": "RRIRNRPPRLPRPRPRPPNNPRP", "shrunken log2 fold change": -0.598}, {"sequence": "RRIRDRPPRLPRPRPRPKVTPRP", "shrunken log2 fold change": -0.0277}, {"sequence": "RRIRVRPPRLPRPRPRPGPWPRP", "shrunken log2 fold change": 0.273}, {"sequence": "RRIRRRPPRLPRPRPRPDVKPRP", "shrunken log2 fold change": 3.47}, {"sequence": "RRIRGRPPRLPRPRPRPGFLPRP", "shrunken log2 fold change": 0.41}, {"sequence": "RRIRTRPPRLPRPRPRPCPNPRP", "shrunken log2 fold change": -0.000921}, {"sequence": "RRIRWRPPRLPRPRPRPVFYPRP", "shrunken log2 fold change": -0.193}, {"sequence": "RRIRKRPPRLPRPRPRPILPPRP", "shrunken log2 fold change": 2.29}, {"sequence": "RRIRVRPPRLPRPRPRPRYCPRP", "shrunken log2 fold change": -0.144}, {"sequence": "RRIRYRPPRLPRPRPRPHPNPRP", "shrunken log2 fold change": -0.758}, {"sequence": "RRIRDRPPRLPRPRPRPKFRPRP", "shrunken log2 fold change": 0.152}, {"sequence": "RRIRERPPRLPRPRPRPCIKPRP", "shrunken log2 fold change": -0.363}, {"sequence": "RRIRNRPPRLPRPRPRPRGIPRP", "shrunken log2 fold change": -0.0954}, {"sequence": "RRIRNRPPRLPRPRPRPYASPRP", "shrunken log2 fold change": -0.397}, {"sequence": "RRIRCRPPRLPRPRPRPPLVPRP", "shrunken log2 fold change": 0.584}, {"sequence": "RRIRQRPPRLPRPRPRPQLAPRP", "shrunken log2 fold change": 0.0428}, {"sequence": "RRIRMRPPRLPRPRPRPHYKPRP", "shrunken log2 fold change": -0.539}, {"sequence": "RRIRDRPPRLPRPRPRPAWHPRP", "shrunken log2 fold change": 0.2}, {"sequence": "RRIRKRPPRLPRPRPRPQSTPRP", "shrunken log2 fold change": -0.0185}, {"sequence": "RRIRCRPPRLPRPRPRPDNYPRP", "shrunken log2 fold change": -0.921}, {"sequence": "RRIRTRPPRLPRPRPRPDIEPRP", "shrunken log2 fold change": -0.117}, {"sequence": "RRIRNRPPRLPRPRPRPTNPPRP", "shrunken log2 fold change": -0.216}, {"sequence": "RRIRARPPRLPRPRPRPRCHPRP", "shrunken log2 fold change": 0.308}, {"sequence": "RRIRARPPRLPRPRPRPTVGPRP", "shrunken log2 fold change": 0.794}, {"sequence": "RRIRHRPPRLPRPRPRPDEAPRP", "shrunken log2 fold change": -0.0728}, {"sequence": "RRIRYRPPRLPRPRPRPDCRPRP", "shrunken log2 fold change": -0.363}, {"sequence": "RRIRLRPPRLPRPRPRPYPCPRP", "shrunken log2 fold change": 0.0537}, {"sequence": "RRIRVRPPRLPRPRPRPECLPRP", "shrunken log2 fold change": 0.0466}, {"sequence": "RRIRDRPPRLPRPRPRPDNKPRP", "shrunken log2 fold change": -0.413}, {"sequence": "RRIRMRPPRLPRPRPRPLWHPRP", "shrunken log2 fold change": 0.336}, {"sequence": "RRIRQRPPRLPRPRPRPRGRPRP", "shrunken log2 fold change": 0.256}, {"sequence": "RRIRARPPRLPRPRPRPTRAPRP", "shrunken log2 fold change": 1}, {"sequence": "RRIRHRPPRLPRPRPRPAKRPRP", "shrunken log2 fold change": -0.132}, {"sequence": "RRIRKRPPRLPRPRPRPQSNPRP", "shrunken log2 fold change": 0.0971}, {"sequence": "RRIRCRPPRLPRPRPRPVCPPRP", "shrunken log2 fold change": 0.0356}, {"sequence": "RRIRCRPPRLPRPRPRPIHGPRP", "shrunken log2 fold change": -0.33}, {"sequence": "RRIRERPPRLPRPRPRPLSGPRP", "shrunken log2 fold change": -0.135}, {"sequence": "RRIRARPPRLPRPRPRPTKVPRP", "shrunken log2 fold change": 0.339}, {"sequence": "RRIRIRPPRLPRPRPRPNKWPRP", "shrunken log2 fold change": -0.0869}, {"sequence": "RRIRKRPPRLPRPRPRPEETPRP", "shrunken log2 fold change": 2.19}, {"sequence": "RRIRRRPPRLPRPRPRPQKHPRP", "shrunken log2 fold change": 0.0365}, {"sequence": "RRIRGRPPRLPRPRPRPVYPPRP", "shrunken log2 fold change": -0.129}, {"sequence": "RRIRTRPPRLPRPRPRPKLNPRP", "shrunken log2 fold change": 0.097}, {"sequence": "RRIRGRPPRLPRPRPRPLRTPRP", "shrunken log2 fold change": 1.69}, {"sequence": "RRIRMRPPRLPRPRPRPVDEPRP", "shrunken log2 fold change": -0.00101}, {"sequence": "RRIRLRPPRLPRPRPRPSDNPRP", "shrunken log2 fold change": -0.49}, {"sequence": "RRIRHRPPRLPRPRPRPPTPPRP", "shrunken log2 fold change": 0.518}, {"sequence": "RRIRYRPPRLPRPRPRPWCMPRP", "shrunken log2 fold change": -0.383}, {"sequence": "RRIRHRPPRLPRPRPRPQYKPRP", "shrunken log2 fold change": -0.252}, {"sequence": "RRIRWRPPRLPRPRPRPRSHPRP", "shrunken log2 fold change": 0.273}, {"sequence": "RRIRRRPPRLPRPRPRPHMLPRP", "shrunken log2 fold change": -0.0594}, {"sequence": "RRIRFRPPRLPRPRPRPCVYPRP", "shrunken log2 fold change": -0.0699}, {"sequence": "RRIRCRPPRLPRPRPRPDEEPRP", "shrunken log2 fold change": 0.123}, {"sequence": "RRIRNRPPRLPRPRPRPQATPRP", "shrunken log2 fold change": 0.991}, {"sequence": "RRIRNRPPRLPRPRPRPGCWPRP", "shrunken log2 fold change": 0.55}]}]}
